Source: patent US20250145697A1 (WASHINGTON UNIVERSITY, published 2025)

Assays:
[1] = target: T1, ApoE4 amino acids 1-164, expressed on yeast (human, UniProt P02649 19-182); assay: yeast display of myc-tagged ApoE4 fragment, antibody staining
T1 construct: with myc tag, on yeast cells; range counts on the mature protein; also called up to helix 4; not shown: myc tag and yeast surface-display partner
T1 chain: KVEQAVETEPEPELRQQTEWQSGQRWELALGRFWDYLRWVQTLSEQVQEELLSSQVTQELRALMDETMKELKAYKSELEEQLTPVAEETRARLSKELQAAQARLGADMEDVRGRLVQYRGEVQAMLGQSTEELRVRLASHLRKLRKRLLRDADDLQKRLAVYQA
Procedure: (§1) Epitope binding of various anti-ApoE antibodies was evaluated multiple ways. Different sequences of human ApoE were expressed on the surface of yeast by yeast display using different plasmids. Different anti-ApoE antibodies were then assessed to determine binding to the different ApoE sequences by immunofluorescence of the yeast cell surface (Table 4). Because none of the anti-ApoE antibodies tested here recognize murine ApoE, the epitope was further narrowed down by comparison of the murine and human ApoE sequences as shown in Tables 4 and 5. DNA constructs containing different regions of ApoE4 with myc tag were transformed into yeast cells. Yeast cells were incubated with HJ15x to detect binding or anti-myc antibody to detect expression.

[2] = target: T2, ApoE4 amino acids 54-164, expressed on yeast (human, UniProt P02649 72-182); assay: as above
T2 construct: with myc tag, on yeast cells; expression in yeast printed as Low; range counts on the mature protein; also called helix2 + 3 + 4
T2 chain: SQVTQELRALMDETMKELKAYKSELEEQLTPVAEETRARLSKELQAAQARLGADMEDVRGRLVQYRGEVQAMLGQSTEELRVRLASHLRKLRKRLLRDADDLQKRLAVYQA
Procedure: as §1

[3] = target: T3, ApoE4 amino acids 24-164, expressed on yeast (human, UniProt P02649 42-182); assay: as above
T3 construct: with myc tag, on yeast cells; range counts on the mature protein; also called helix1 + 2 + 3 + 4
T3 chain: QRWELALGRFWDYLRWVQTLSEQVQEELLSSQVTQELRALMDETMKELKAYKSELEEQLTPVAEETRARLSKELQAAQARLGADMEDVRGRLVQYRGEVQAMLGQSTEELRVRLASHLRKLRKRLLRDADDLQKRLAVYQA
Procedure: as §1

[4] = target: T4, ApoE4 amino acids 1-210, expressed on yeast (human, UniProt P02649 19-228); assay: as above
T4 construct: with myc tag, on yeast cells; range counts on the mature protein; also called N terminal domain; not shown: myc tag and yeast surface-display partner
T4 chain: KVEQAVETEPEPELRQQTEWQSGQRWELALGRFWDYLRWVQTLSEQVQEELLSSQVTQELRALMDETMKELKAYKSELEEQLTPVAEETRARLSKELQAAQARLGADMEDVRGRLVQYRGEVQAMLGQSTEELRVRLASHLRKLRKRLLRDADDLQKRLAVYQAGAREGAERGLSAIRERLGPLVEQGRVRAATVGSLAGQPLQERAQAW
Procedure: as §1

murine ApoE = target: T5, murine ApoE (mouse, UniProt P08226 19-311); assay: not described
T5 sequence (looked up): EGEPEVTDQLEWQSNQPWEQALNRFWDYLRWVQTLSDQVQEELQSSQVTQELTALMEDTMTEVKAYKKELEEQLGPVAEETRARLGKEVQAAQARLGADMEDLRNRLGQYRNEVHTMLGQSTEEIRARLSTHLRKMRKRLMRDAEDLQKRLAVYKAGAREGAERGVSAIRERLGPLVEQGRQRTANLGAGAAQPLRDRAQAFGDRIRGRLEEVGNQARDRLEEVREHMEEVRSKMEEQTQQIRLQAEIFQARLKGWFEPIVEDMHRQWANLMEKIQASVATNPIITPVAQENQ

[5] = target: T6, recombinant alipidated human ApoE3 (human, UniProt P02649 19-317); assay: direct ELISA on coated recombinant alipidated ApoE (0.5 ug/ml)
T6 construct: mature; full length recombinant protein made in E. coli or bought
T6 sequence (P02649 19-317): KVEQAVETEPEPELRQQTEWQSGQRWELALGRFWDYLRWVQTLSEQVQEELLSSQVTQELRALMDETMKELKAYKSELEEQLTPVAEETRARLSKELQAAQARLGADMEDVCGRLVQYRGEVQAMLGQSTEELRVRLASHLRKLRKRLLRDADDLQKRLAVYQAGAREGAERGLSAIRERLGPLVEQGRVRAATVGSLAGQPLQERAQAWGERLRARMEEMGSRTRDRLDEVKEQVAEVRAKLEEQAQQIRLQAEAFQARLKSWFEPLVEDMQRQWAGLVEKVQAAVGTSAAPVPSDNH
Procedure: (§2) ELISA dose response curves were generated for several anti-ApoE antibodies. Briefly, plates were coated overnight with full length recombinant alipidated ApoE2, ApoE3, or ApoE4 (0.5 μg/ml). The following days, plates were washed, blocked and then incubated with an anti-ApoE antibody. A goat, anti-mouse IgG-HRP antibody was used for secondary detection. Recombinant alipidated ApoE was either expressed solubly in E. coli and then purified, or purchased from a commercial supplier.

[6] = target: T7, recombinant alipidated human ApoE4 (human, UniProt P02649 19-317); assay: as above
T7 construct: mature; full length recombinant protein made in E. coli or bought; biotinylated for SPR; position 112 is counted on the mature protein, not on the precursor entry; also called recApoE; non-lipidated ApoE4
T7 sequence (P02649 19-317 C130R): as the sequence (P02649 19-317) above, with C112R counted along it
Procedure: as §2

[7] = target: T8, ApoE4 amino acids 24-125, expressed on yeast (human, UniProt P02649 42-143); assay: yeast display of myc-tagged ApoE4 fragment, antibody staining
T8 construct: with myc tag, on yeast cells; range counts on the mature protein; also called helix1 + 2 + 3
T8 chain: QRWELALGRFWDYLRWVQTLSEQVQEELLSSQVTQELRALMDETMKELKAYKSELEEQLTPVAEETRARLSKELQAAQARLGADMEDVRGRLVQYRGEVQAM
Procedure: as §1

[8] = target: T9, ApoE4 amino acids 1-132, expressed on yeast (human, UniProt P02649 19-150); assay: as above
T9 construct: with myc tag, on yeast cells; range counts on the mature protein; also called up to helix 3; not shown: myc tag and yeast surface-display partner
T9 chain: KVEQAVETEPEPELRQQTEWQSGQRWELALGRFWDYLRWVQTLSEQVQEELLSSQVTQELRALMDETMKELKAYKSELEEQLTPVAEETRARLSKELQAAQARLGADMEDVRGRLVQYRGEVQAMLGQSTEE
Procedure: as §1

[9] = target: T10, recombinant alipidated human ApoE2 (human, UniProt P02649 19-317); assay: direct ELISA on coated recombinant alipidated ApoE (0.5 ug/ml)
T10 construct: mature; full length recombinant protein made in E. coli or bought
T10 sequence (P02649 19-317 R176C): as the sequence (P02649 19-317) above, with R158C counted along it
Procedure: as §2

[10] = target: T7, recombinant alipidated human ApoE4; assay: SPR (Biacore T200), biotinylated ApoE4 captured on anti-biotin mAb chip, antibody injected, 1:1 fit
Procedure: The affinity of several anti-ApoE antibodies for ApoE4 was determined by surface plasmon resonance using a BIAcore T200. Anti-biotin monoclonal mouse antibody was immobilized on a Biacore Series S CM5 sensor chip. Biotinylated recombinant alipidated ApoE4 was then captured on to the chip. Serial dilutions of each antibody were injected at a flow rate of 30 μl/min. Each sample was analyzed, for example, with 3-minute association and 10-minute dissociation. After each injection the chip was regenerated using 3 M MgCl₂ or another appropriate buffer. Binding response was corrected by subtracting the response units (RUs) from a flow cell capturing an irrelevant IgG at similar density. A 1:1 Languir model of simultaneous fitting of Kₒₙ and Koff was used for kinetics analysis. Recombinant alipidated ApoE4 was either expressed in soluble form in E. coli and then purified, or purchased from a commercial supplier.

B1: HJ155 (antibody, V domains shown)
VH: RVQLQQSGPGLVKPGASVKISCKASGYTFTDYYINWVRQRPGQGLEWIGWIFPGSGITYYNEKFKGKATLTVDRSSSTAYMLLSSLTSEDSAVYFCARYAYGSPFAYWGQGTLVTVSA
VL: DVLMTQTPLSLPVSLGDQASISCRSSQSIVHSNGNTYLEWYLQKPGQSPKLLIYKVSNRFSGVPDRFSGSGSGTDFTLKISRVEAEDLGVYYCFQGSHVPYTFGGGTKLEIKR
notes: murine monoclonal antibody from hybridoma; also called HJ155B (biotinylated)
[1]
  binding result: binds
[2]
  binding result: binds
[3]
  binding result: binds
[4]
  binding result: binds
Murine ApoE
  binding result: no binding
[5]
  EC50: 780 pM
[6]
  EC50: 1100 pM

B2: HJ1526 (antibody, V domains shown)
VH: QVQLQQPGTALVKPGASVKLSCKSSGYTFTDYWVHWVKQRPGQGLEWIGNINPRNGGINYNENFKGKAILTVDRSFSIAYMQLNSLTSEDSAVYYCARPGATVVHRTPWFAHWGQGTLVTVSA
VL: EIVLTQSPALMAASPGEKVTITCSVSSSISSSNLHWFQQKSETSPKPWIFGTSYLASGVPVRFSGSGSGTSYSLTISSMEAEDAATYYCQQWNSYPLTFGAGTKLELR
notes: murine monoclonal antibody from hybridoma
[1]
  binding result: binds
[7]
  binding result: binds
[8]
  binding result: binds
[2]
  binding result: binds
[3]
  binding result: binds
[4]
  binding result: binds
[9]
  EC50: 30 pM
[5]
  EC50: 50 pM
[6]
  EC50: 40 pM
[10]
  Kd: 670000 pM
  koff: 0.00528 s⁻¹
  kon: 7880 M⁻¹ s⁻¹
